CAKI-1 cell death, clonogenic assay with AE-conjugated antibody, maximum dose and Kd data for 3 molecules are collected here from patent publication US20170267750A1, “Method of Treating Ovarian and Renal Cancer Using Antibodies Against T Cell Immunoglobulin Domain and Mucin Domain 1 (TIM-1) Antigen” (Celldex Therapeutics, Inc., priority 2005, published 2017).

Assay [1] concerns the target TIM-1 (T cell, immunoglobulin domain and mucin domain 1), cell membrane-bound (human) (UniProt Q96D42). As to the kind of experiment: cell-based or functional assay.
Assay [2] addresses TIM-1 antigen, soluble extracellular domain of TIM-1 (CG57008-02) with a V5-HIS tag (human) (UniProt Q96D42). In words: BIAcore 2000, 25 C, mAb captured on goat anti-human surface, TIM-1 antigen injected at 292 nM. For orientation: In SPR one partner is held on a chip, and binding of the other changes the refractive index at the surface.

Sequence of TIM-1 (T cell, immunoglobulin domain and mucin domain 1), cell membrane-bound (human) (Q96D42 21-364): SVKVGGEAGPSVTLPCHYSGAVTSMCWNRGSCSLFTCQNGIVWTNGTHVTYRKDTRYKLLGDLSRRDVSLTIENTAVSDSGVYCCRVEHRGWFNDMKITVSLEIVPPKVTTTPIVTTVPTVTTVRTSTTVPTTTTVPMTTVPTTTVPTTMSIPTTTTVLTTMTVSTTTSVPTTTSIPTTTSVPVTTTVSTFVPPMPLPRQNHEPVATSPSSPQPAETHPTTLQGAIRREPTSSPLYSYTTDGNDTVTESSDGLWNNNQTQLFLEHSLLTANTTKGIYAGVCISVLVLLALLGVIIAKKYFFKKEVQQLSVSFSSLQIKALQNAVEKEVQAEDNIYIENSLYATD
Sequence of TIM-1 antigen, soluble extracellular domain of TIM-1 (CG57008-02) with a V5-HIS tag (human) (Q96D42 other isoform, or with tags, fused parts or gaps): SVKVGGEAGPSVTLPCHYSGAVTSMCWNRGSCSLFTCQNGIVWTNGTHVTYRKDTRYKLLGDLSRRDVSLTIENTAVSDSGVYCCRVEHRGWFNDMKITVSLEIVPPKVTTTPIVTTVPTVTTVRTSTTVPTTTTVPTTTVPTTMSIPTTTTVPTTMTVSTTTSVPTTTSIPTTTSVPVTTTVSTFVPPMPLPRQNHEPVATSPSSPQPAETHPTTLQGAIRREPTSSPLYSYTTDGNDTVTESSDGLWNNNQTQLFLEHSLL

B1: Auristatin E (AE)-conjugated anti-TIM-1 mAb 2.59.2 (antibody, V domains shown)
VH: NNNNNQSGPRLVKPSQTLSLTCTVSGGSISSDGYYWSWIRQHPGKGLEWIGYIYYSGSTFYNPSLKSRVAISVDTSKNQFSLKLSSVTAADTAVYYCARESPHSSNWYSGFDCWGQGTLVTVSS
VL: NNNNTQSPDFQSVTPKEKVTITCRASQSIGSRLHWYQQKPDQSPKLLIKYASQSFSGVPSRFSGSGSGTDFTLTINSLEAEDAATYYCHQSSNLPFTFGPGTKVDIKR
B1 displayed a CAKI-1 cell death, clonogenic assay with AE-conjugated antibody, maximum dose in assay [1] above 90%.

B2: anti-TIM-1 monoclonal antibody 2.54 (antibody, V domains shown)
VH: QVQLEQSGGGVVQPGRSLRLSCAASGFTFTNYGLHWVRQAPGKGLDWVAVIWYDGSHKFYADSVKGRFTISRDNSKNTLFLQMNSLRAEDTAVYYCTRDLDYWGQGTLVTVSS
VL: ETQLTQSPGTLSLSPGERVTLSCRASQSVSNNYLAWYQQKPGQAPRLLIYGASSRATGIPDRFSGSGSGTDFTLTISRLEPEDCAECYCQQYGSSLPLTFGGGTKVEIKR
For the molecule B2, the dissociation constant Kd in assay [2] was 3.35 nM.

B3: Auristatin E (AE)-conjugated anti-TIM-1 mAb 2.70.2 (antibody, human IgG4, kappa, V domains shown)
VH: QVQLVESGGGVVQPGRSLRLSCAASGFIFSRYGMHWVRQAPGKGLKWVAVIWYDGSNKLYADSVKGRFTISRDNSKNTLYLQMNSLRAEDTAVYYCARDYYDNSRHHWGFDYWGQGTLVTVSS
VL: DIVMTQTPLSLPVTPGEPASISCRSSRSLLDSDDGNTYLDWYLQKPGQSPQLLIYTLSYRASGVPDRFSGSGSGTDFTLKISRVEAEDVGVYYCMQRVEFPITFGQGTRLEIKR
Consider B3, for which the CAKI-1 cell death, clonogenic assay with AE-conjugated antibody, maximum dose in assay [1] was above 90%.

The term Kd denotes the equilibrium constant for the complex coming apart.
